For this assay, the target named is T1, interaction (binding) between FKBP12 and FRB (Homo sapiens, UniProt P42345+P62942).
T1 construct: FLAG-FRB expression vector; expressed in transfected cells; host or cells: HEK-293T (ATCC CRL-11268)
Nature of the assay: Split SEAP fragment complementation: SEAP activity in culture supernatant (pNpp, absorbance 405 nm) after rapamycin-induced FKBP12-FRB binding. The assay is classed as cell-based. Particulars: HEK-293T cells, same manner as Example 2; for SEAP activity of the pair pSNA379 with pSCA373 or pSCB373 (FIG. 6): N-terminal fragment cleaved at 379, C-terminal fragment cleaved at 372; for SEAP activity of the pair pSNA418 with pSCA405 or pSCB405 (FIG. 6): N-terminal fragment cleaved at 418, C-terminal fragment cleaved at 404; for SEAP activity of the pair pSNA387 with pSCA380 (FIG. 6): N-terminal fragment cleaved at 387, C-terminal fragment cleaved at 379; for SEAP activity of the pair pSNA404 with pSCA388 or pSCB388 (FIG. 6): N-terminal fragment cleaved at 404, C-terminal fragment cleaved at 387. On the procedure:
HEK-293T (Human embryonic kidney cell, ATCC: CRL-11268) cells were cultured in DMEM (Dulbecco's modified Eagle's media, Gibco, Seoul, South Korea) treated with a 10% (v/v) FBS (HyClone) and 1% (v/v) penicillin/streptomycin solution (HyClone) and cultured at 37° C. in a humidified atmosphere containing 5% CO2.
HEK-293T cells were seeded at 2×10^4 cells per well in a 48-well plate and cultured until 24 hours before transformation.
For the transformation, 0.15 μL of PEI (PEI, <20,000 MW, Cat. No. 23966, Polysciences, Inc., Warrington, Pa., USA; stock solution: 4 mg/mL in ddH20, pH 7.2) was mixed with 0.2 pLg of DNA, and the mixture was vortexed for 5 seconds and then incubated for 20 minutes at 25° C. to prepare 40 μL of DNA-PEI mixture per well. At this time, the DNA was prepared by mixing a vector (pSNA series) containing a SEAP N-terminal fragment and a vector (pSCA or pSCB series) containing a SEAP C-terminal fragment.
After 24 hours of the transformation, the culture medium was replaced with DMEM with 100 nM rapamycin or DMEM without rapamycin.
SEAP activity was measured after 24 hours. The SEAP activity was measured in a time course using a p-nitrophenylphosphate (pNpp)-based absorbance (405 nm) measuring method. 80 μL of a culture medium supernatant, 100 μL of a 2× SEAP buffer solution (21% diethanolamine, 20 mM L-homoarginine, and 1 mM MgCl2, pH 9.8), and 20 μL of 120 mM pNpp were mixed and reacted with one another, and then absorbance at 405 nm was measured.

T1 sequence (P62942 whole entry): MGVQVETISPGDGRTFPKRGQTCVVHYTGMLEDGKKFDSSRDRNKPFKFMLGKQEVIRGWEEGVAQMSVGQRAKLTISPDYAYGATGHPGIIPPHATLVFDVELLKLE
T1 sequence (P42345 2012-2144): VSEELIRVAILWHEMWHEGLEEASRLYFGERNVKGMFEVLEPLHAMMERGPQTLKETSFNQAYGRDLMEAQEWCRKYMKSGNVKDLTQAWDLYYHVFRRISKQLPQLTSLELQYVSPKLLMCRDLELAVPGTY

For the molecule “pSNA379: HA-FKBP-snSEAP fusion: SEAP N-terminal fragment (1-379) fused to C-terminal of FKBP12, expression vector”, the “SEAP activity of the pair pSNA379 with pSCA373 or pSCB373 (FIG. 6)” value (“SEAP activity of the pair pSNA379” for short) is recorded as “excellent SEAP activity”.

As for “pSNA418: HA-FKBP-snSEAP fusion: SEAP N-terminal fragment (1-418), expression vector”, the “SEAP activity of the pair pSNA418 with pSCA405 or pSCB405 (FIG. 6)” value (“SEAP activity of the pair pSNA418” below) is “excellent SEAP activity”.

With “pSNA387: HA-FKBP-snSEAP fusion: SEAP N-terminal fragment (1-387), expression vector”, the “SEAP activity of the pair pSNA387 with pSCA380 (FIG. 6)” value was “excellent SEAP activity”.

Take “pSNA404: HA-FKBP-snSEAP fusion: SEAP N-terminal fragment (1-404), expression vector”: the “SEAP activity of the pair pSNA404 with pSCA388 or pSCB388 (FIG. 6)” value (shortened to “SEAP activity of the pair pSNA404”) is “excellent SEAP activity”.

B1: pSCA388: FLAG-FRB-scSEAP fusion: SEAP C-terminal fragment (388-502), cleaved at position 387, expression vector (protein)
chain: ILWHEMWHEGLEEASRLYFGERNVKGMFEVLEPLHAMMERGPQTLKETSFNQAYGRDLMEAQEWCRKYMKSGNVKDLTQAWDLYYHVFRRISKKGSGSTSGSGYTVLLYGNGPGYVLKDGARPDVTESESGSPEYRQQSAVPLDEETHAGEDVAVFARGPQAHLVHGVQEQTFIAHVMAFAACLEPYTACDLAPPAGTTDAAHPGYSRVGAAGRFEQT
modifications: left off: small tags and cut ends
notes: FLAG-FRB-scSEAP fusion: SEAP C-terminal fragment (388-502), cleaved at position 387, expression vector
In the case of B1, the “SEAP activity of the pair pSNA404” value was “excellent SEAP activity”.

B2: pSCB373: scSEAP-FRB-FLAG fusion: SEAP C-terminal fragment (373-502), cleaved at position 372, expression vector (protein)
chain: SIFGLAPGKARDRKAYTVLLYGNGPGYVLKDGARPDVTESESGSPEYRQQSAVPLDEETHAGEDVAVFARGPQAHLVHGVQEQTFIAHVMAFAACLEPYTACDLAPPAGTTDAAHPGYSRVGAAGRFEQTKGSGSTSGSGILWHEMWHEGLEEASRLYFGERNVKGMFEVLEPLHAMMERGPQTLKETSFNQAYGRDLMEAQEWCRKYMKSGNVKDLTQAWDLYYHVFRRISK
modifications: left off: small tags and cut ends
notes: scSEAP-FRB-FLAG fusion: SEAP C-terminal fragment (373-502), cleaved at position 372, expression vector
Regarding B2, the “SEAP activity of the pair pSNA379” value is reported as “excellent SEAP activity”.

B3: pSCB405: scSEAP-FRB-FLAG fusion: SEAP C-terminal fragment (405-502), cleaved at position 404, expression vector (protein)
chain: ARPDVTESESGSPEYRQQSAVPLDEETHAGEDVAVFARGPQAHLVHGVQEQTFIAHVMAFAACLEPYTACDLAPPAGTTDAAHPGYSRVGAAGRFEQTKGSGSTSGSGILWHEMWHEGLEEASRLYFGERNVKGMFEVLEPLHAMMERGPQTLKETSFNQAYGRDLMEAQEWCRKYMKSGNVKDLTQAWDLYYHVFRRISK
modifications: left off: small tags and cut ends
notes: scSEAP-FRB-FLAG fusion: SEAP C-terminal fragment (405-502), cleaved at position 404, expression vector
Turning to B3, the “SEAP activity of the pair pSNA418” value is listed as “excellent SEAP activity”.

B4: pSCA373: FLAG-FRB-scSEAP fusion: SEAP C-terminal fragment (373-502), cleaved at position 372, expression vector (protein)
chain: ILWHEMWHEGLEEASRLYFGERNVKGMFEVLEPLHAMMERGPQTLKETSFNQAYGRDLMEAQEWCRKYMKSGNVKDLTQAWDLYYHVFRRISKKGSGSTSGSGSIFGLAPGKARDRKAYTVLLYGNGPGYVLKDGARPDVTESESGSPEYRQQSAVPLDEETHAGEDVAVFARGPQAHLVHGVQEQTFIAHVMAFAACLEPYTACDLAPPAGTTDAAHPGYSRVGAAGRFEQT
modifications: left off: small tags and cut ends
notes: FLAG-FRB-scSEAP fusion: SEAP C-terminal fragment (373-502), cleaved at position 372, expression vector
For B4, the “SEAP activity of the pair pSNA379” value is given as “excellent SEAP activity”.

B5: pSCA380: FLAG-FRB-scSEAP fusion: SEAP C-terminal fragment (380-502), cleaved at position 379, expression vector (protein)
chain: ILWHEMWHEGLEEASRLYFGERNVKGMFEVLEPLHAMMERGPQTLKETSFNQAYGRDLMEAQEWCRKYMKSGNVKDLTQAWDLYYHVFRRISKKGSGSTSGSGGKARDRKAYTVLLYGNGPGYVLKDGARPDVTESESGSPEYRQQSAVPLDEETHAGEDVAVFARGPQAHLVHGVQEQTFIAHVMAFAACLEPYTACDLAPPAGTTDAAHPGYSRVGAAGRFEQT
modifications: left off: small tags and cut ends
notes: FLAG-FRB-scSEAP fusion: SEAP C-terminal fragment (380-502), cleaved at position 379, expression vector
For B5, the “SEAP activity of the pair pSNA387 with pSCA380 (FIG. 6)” value is “excellent SEAP activity”.

B6: pSCA405: FLAG-FRB-scSEAP fusion: SEAP C-terminal fragment (405-502), cleaved at position 404, expression vector (protein)
chain: ILWHEMWHEGLEEASRLYFGERNVKGMFEVLEPLHAMMERGPQTLKETSFNQAYGRDLMEAQEWCRKYMKSGNVKDLTQAWDLYYHVFRRISKKGSGSTSGSGARPDVTESESGSPEYRQQSAVPLDEETHAGEDVAVFARGPQAHLVHGVQEQTFIAHVMAFAACLEPYTACDLAPPAGTTDAAHPGYSRVGAAGRFEQT
modifications: left off: small tags and cut ends
notes: FLAG-FRB-scSEAP fusion: SEAP C-terminal fragment (405-502), cleaved at position 404, expression vector
With B6, the “SEAP activity of the pair pSNA418” value was “excellent SEAP activity”.

B7: pSCB388: scSEAP-FRB-FLAG fusion: SEAP C-terminal fragment (388-502), cleaved at position 387, expression vector (protein)
chain: YTVLLYGNGPGYVLKDGARPDVTESESGSPEYRQQSAVPLDEETHAGEDVAVFARGPQAHLVHGVQEQTFIAHVMAFAACLEPYTACDLAPPAGTTDAAHPGYSRVGAAGRFEQTKGSGSTSGSGILWHEMWHEGLEEASRLYFGERNVKGMFEVLEPLHAMMERGPQTLKETSFNQAYGRDLMEAQEWCRKYMKSGNVKDLTQAWDLYYHVFRRISK
modifications: left off: small tags and cut ends
notes: scSEAP-FRB-FLAG fusion: SEAP C-terminal fragment (388-502), cleaved at position 387, expression vector
For the molecule B7, the “SEAP activity of the pair pSNA404” value is listed as “excellent SEAP activity”.

The values above are taken from patent US20200308559A1, “Composition for detecting protein-protein interactions comprising fragments of secreted alkaline phosphatase (SEAP) and method for detecting protein-protein interactions using the same” (priority 2019, published 2020).
